Test results taken from patent US20070287665A1 (SOCIETE DE CONSEILS DE RECHERCHES ET D APPLICATIONS …, published 2007).
Bridge positions count the residues as written; N and C are the ends. Square brackets hold non-standard residues; d marks the D form. Ends that are not written are not given here. dDip = N[C@@H](C(=O)O)C(c1ccccc1)c1ccccc1; Phe(4-Cl) = N[C@@H](Cc1ccc(Cl)cc1)C(=O)O; Phe(4-F) = N[C@@H](Cc1ccc(F)cc1)C(=O)O; 3Pal = N[C@@H](Cc1cccnc1)C(=O)O; Tle = CC(C)(C)[C@H](N)C(=O)O; Nal = naphthylalanine

T1: U-II receptors (rat thoracic aorta tissue) (rat, UniProt P49684 1-386)
T1 sequence (looked up): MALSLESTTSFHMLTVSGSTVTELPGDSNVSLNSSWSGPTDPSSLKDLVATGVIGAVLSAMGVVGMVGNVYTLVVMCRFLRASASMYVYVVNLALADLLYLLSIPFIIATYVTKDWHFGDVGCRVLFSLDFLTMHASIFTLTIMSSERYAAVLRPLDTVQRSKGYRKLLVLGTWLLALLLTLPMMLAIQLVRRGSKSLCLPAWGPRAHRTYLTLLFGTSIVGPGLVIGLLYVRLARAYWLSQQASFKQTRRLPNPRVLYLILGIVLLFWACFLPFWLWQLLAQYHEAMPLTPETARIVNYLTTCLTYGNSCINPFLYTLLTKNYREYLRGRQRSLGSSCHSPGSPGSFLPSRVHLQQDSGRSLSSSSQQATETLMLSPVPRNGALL


Assays:
[1] = target: U-II receptors (rat thoracic aorta tissue) (rat) (UniProt P49684); assay: method not described; presumably binding to rat aorta tissue / U-II receptors
[2] = target: U-II receptors (rat thoracic aorta tissue) (rat) (UniProt P49684); assay: cell-based or functional assay
[3] = target: T1, U-II receptors (rat thoracic aorta …); assay: cell-based or functional assay
[4] = target: T1, U-II receptors (rat thoracic aorta …); assay: cell-based or functional assay; remark: listed apart in the source

| SRIF Antagonist IC50s (nM) against U-II Stimulation of Rat Aorta Phasic Contractions [3] [nM] | Molecule | also measured |
| --- | --- | --- |
| – | Cpa-c[D-Cys-Pal-D-Trp-Lys-Val-Cys]-Cpa-amide (peptide) | Kd [1]: 240 nM; IC50 against U-II-induced phasic contractions in circular rat thoracic aorta strips [2]: 100 nM |
| 1090 | [Phe(4-F)][dC][3Pal][dW]KVC[Nal]-NH2 (disulfide 2-7 (inferred)) [4Fpa-D-Cys-Pal-D-Trp-Lys-Val-Cys-Nal-NH2] | – |
| 100 | [Phe(4-F)][dC][3Pal][dW]K[Tle]C[Nal]-NH2 (disulfide 2-7 (inferred)) [4Fpa-D-Cys-Pal-D-Trp-Lys-Tle-Cys-Nal-NH2] | – |
| 2 | [Phe(4-Cl)][dC][3Pal]WKTC[Phe(4-Cl)]-NH2 (disulfide 2-7 (inferred)) [Cpa-D-Cys-Pal-Trp-Lys-Thr-Cys-Cpa-NH2] | – |
| 1800 | [Nal][dC]H[dW]KVC[dDip]-NH2 (disulfide 2-7 (inferred)) [Nal-D-Cys-His-D-Trp-Lys-Val-Cys-D-Dip-NH2] | – |
| 12 | XXYXKTCX (Cpa (p-chlorophenylalanine) at 1; D-Cys at 2; D-Trp at 4; Nal (naphthylalanine) at 8; C-terminal amide) [Cpa-D-Cys-Tyr-D-Trp-Lys-Thr-Cys-Nal-NH2] | – |
| 10 | [Phe(4-Cl)][dC][3Pal][dW]K[Tle]C[Nal]-NH2 (disulfide 2-7 (inferred)) [Cpa-D-Cys-Pal-D-Trp-Lys-Tle-Cys-Nal-NH2] | – |
| – | [Phe(4-Cl)][dC]FWKTCV-NH2 (disulfide 2-7; N-terminus assumed; SMILES CC(C)[C@H](NC(=O)[C@@H]1CSSC[C@@H](NC(=O)[C@@H](N)Cc2ccc(Cl)cc2)C(=O)N[C@@H](Cc2ccccc2)C(=O)N[C@@H](Cc2c[nH]c3ccccc23)C(=O)N[C@@H](CCCCN)C(=O)N[C@@H]([C@@H](C)O)C(=O)N1)C(N)=O) [Cpa-c[D-Cys-Phe-Trp-Lys-Thr-Cys]-Val-NH2] | IC50 against U-II-induced phasic contractions in circular rat thoracic aorta strips [4]: 2 nM |
